Results taken from US20200207868A1 (UNIVERSITY OF SASKATCHEWAN, published 2020).

Legend:
[1] = molecular target: T1, recombinant human HER3-Fc chimera protein (R&D Systems) (human, UniProt P21860 20-643); assay: BLI (Octet Red), antibody on AR2G sensor, HER3-Fc 10-263 nM, 1:1 fit
T1 construct: extracellular domain; Bought from R&D Systems; also called recombinant human HER3 extracellular domain; recombinant HER3; not shown: Fc part of the purchased chimera
Method: Binding kinetics were measured using an Octet Red instrument (ForteBio, Menlo Park, Calif.), following the manufacturer's protocol. Binding assays were performed in 96-well microtiter plates at 30° C. with sample plate orbital motion agitation at 1000 rpm. All washes, dilutions, and measurements were performed in phosphate buffered saline (PBS), pH 7.4. The IgG and antibody fragments were immobilized on amine-reactive second generation (AR2G) sensors using the manufacturer's protocol at pH 5 followed by quenching with 1 M ethanolamine, pH 8.5. […] Binding was monitored by placing sensors into wells for 5 min, followed by dissociation in PBS for 10 min. KD, kON, and kOFF were determined with ForteBio Data Analysis software v7.1.0.33 through locally fitting the processed data using a 1:1 binding model.

[2] = molecular target: T1, recombinant human HER3-Fc chimera …; assay: BLI, IRDye800CW-labeled antibody
[3] = molecular target: HER3 (as used in the biolayer interferometry of Example 2) (UniProt P21860 20-643, limits assumed); assay: BLI
Sequence of HER3 (as used in the biolayer interferometry of Example 2) (P21860 20-643 limits assumed): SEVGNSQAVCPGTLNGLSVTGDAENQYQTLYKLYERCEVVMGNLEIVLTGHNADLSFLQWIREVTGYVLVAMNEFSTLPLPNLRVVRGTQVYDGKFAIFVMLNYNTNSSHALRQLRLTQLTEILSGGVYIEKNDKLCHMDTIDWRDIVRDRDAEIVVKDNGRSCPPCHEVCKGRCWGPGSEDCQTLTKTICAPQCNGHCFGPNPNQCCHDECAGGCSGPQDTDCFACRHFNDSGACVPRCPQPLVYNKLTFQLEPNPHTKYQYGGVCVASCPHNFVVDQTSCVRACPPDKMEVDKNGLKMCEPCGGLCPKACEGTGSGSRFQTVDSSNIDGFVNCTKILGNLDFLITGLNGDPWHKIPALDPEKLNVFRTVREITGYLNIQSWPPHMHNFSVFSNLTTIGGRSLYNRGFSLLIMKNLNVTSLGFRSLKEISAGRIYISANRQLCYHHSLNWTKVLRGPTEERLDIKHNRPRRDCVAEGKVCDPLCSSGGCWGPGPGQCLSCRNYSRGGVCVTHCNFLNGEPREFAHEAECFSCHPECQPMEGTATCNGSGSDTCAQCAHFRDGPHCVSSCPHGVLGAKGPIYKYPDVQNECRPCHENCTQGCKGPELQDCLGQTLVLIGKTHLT

T1 sequence (P21860 20-643, change not shown): as the sequence (P21860 20-643 limits assumed) above

Row | Binder | Kd [1] [nM] | koff [1] [s⁻¹] | kon [1] [M⁻¹ s⁻¹] | Kd [2] [nM] | other results
1 | anti-HER3 diabody (other, VL-GGGGS-VH of HER3-3; bivalent (51.6 kDa), expressed in E. coli) SDIQMTQSPSSLSASVGDRVTITCRASQGISNYLAWYQQKPGKAPKLLIYAASSLQSGVPSRFSGSRSGTDFTLTISSLQPEDFATYYCQQYGWLPLTFGQGTKVEIKGGGGSEISEVQLVESGGGLVQPGGSLRLSCAASGFTFSSYGMHWVRQAPGKGLEWVAVISYDGSNKYYADSVKGRFTISRDNSKNTLYLQMNSLRAEDTAVYYCARTDPYSLGGYYFDYWGQGTLVTVSS | 3 | 0.00044 | 150000 |  | 
2 | anti-HER3 diabody labeled with IRDye800CW (other, IRDye800CW-NHS label, 1-2 dye molecules per fragment, sites not stated, m5 labelled with IRDye800CW; also called IRDye800CW-labeled diabody) SDIQMTQSPSSLSASVGDRVTITCRASQGISNYLAWYQQKPGKAPKLLIYAASSLQSGVPSRFSGSRSGTDFTLTISSLQPEDFATYYCQQYGWLPLTFGQGTKVEIKGGGGSEISEVQLVESGGGLVQPGGSLRLSCAASGFTFSSYGMHWVRQAPGKGLEWVAVISYDGSNKYYADSVKGRFTISRDNSKNTLYLQMNSLRAEDTAVYYCARTDPYSLGGYYFDYWGQGTLVTVSS |  |  |  | 2.4 | 
3 | anti-HER3 scFv (scFv, VL-(GGGGS)3-VH of HER3-3, expressed in E. coli) scFv: SDIQMTQSPSSLSASVGDRVTITCRASQGISNYLAWYQQKPGKAPKLLIYAASSLQSGVPSRFSGSRSGTDFTLTISSLQPEDFATYYCQQYGWLPLTFGQGTKVEIKGGGGSGGGGSGGGGSEISEVQLVESGGGLVQPGGSLRLSCAASGFTFSSYGMHWVRQAPGKGLEWVAVISYDGSNKYYADSVKGRFTISRDNSKNTLYLQMNSLRAEDTAVYYCARTDPYSLGGYYFDYWGQGTLVTVSS | 20 | 0.00054 | 33000 |  | Kd [3]: 21.6 nM; koff [3]: 0.00127 s⁻¹; kon [3]: 60400 M⁻¹ s⁻¹
4 | anti-HER3 scFv labeled with IRDye800CW (scFv, IRDye800CW-NHS label, 1-2 dye molecules per fragment, sites not stated, m4 labelled with IRDye800CW; also called IRDye800CW-labeled scFv) scFv: SDIQMTQSPSSLSASVGDRVTITCRASQGISNYLAWYQQKPGKAPKLLIYAASSLQSGVPSRFSGSRSGTDFTLTISSLQPEDFATYYCQQYGWLPLTFGQGTKVEIKGGGGSGGGGSGGGGSEISEVQLVESGGGLVQPGGSLRLSCAASGFTFSSYGMHWVRQAPGKGLEWVAVISYDGSNKYYADSVKGRFTISRDNSKNTLYLQMNSLRAEDTAVYYCARTDPYSLGGYYFDYWGQGTLVTVSS |  |  |  | 29 | 
5 | anti-HER3 scFv-CH3 labeled with IRDye800CW (other, also called IRDye800CW-labeled scFv-CH3) SDIQMTQSPSSLSASVGDRVTITCRASQGISNYLAWYQQKPGKAPKLLIYAASSLQSGVPSRFSGSRSGTDFTLTISSLQPEDFATYYCQQYGWLPLTFGQGTKVEIKGGGGSGGGGSGGGGSEISEVQLVESGGGLVQPGGSLRLSCAASGFTFSSYGMHWVRQAPGKGLEWVAVISYDGSNKYYADSVKGRFTISRDNSKNTLYLQMNSLRAEDTAVYYCARTDPYSLGGYYFDYWGQGTLVTVSSEPKSCDKTHTCPPCPGQPREPQVYTLPPSREEMTKNQVSLTCLVKGFYPSDIAVEWESNGQPENNYKTTPPVLDSDGSFFLYSKLTVDKSRWQQGNVFSCSVMHEALHNHYTQKSLSLSPGK |  |  |  | 2.1 | 
